“Also recorded” adds a separate entry of the source.
How the values were obtained:
TrkB positive neurons = assay: Diphtheria toxin mediated ablation of TrkB+ sensory neurons in TrkBCreERT2::AviliDTR mice; format: in vivo, mouse; conditions: systemic injection; DRG sections
primary keratinocytes = assay: In-vitro photo-ablation of primary keratinocytes (propidium iodide staining); format: cell-based, mouse; conditions: wild type keratinocytes; near infra-red light; 24 hours after
Method: 1 μM IL31^SNAP and 3 μM BG-IR700 were coupled for 1 hour at 37° C. The coupling reaction was applied for 10 minutes at 37° C. on primary wild type and IL31RA^−/− keratinocytes. Cells were then exposed to near infra-red light (680 nm) at 40 J/cm^2 for 2 minutes. 24 hours after light exposure cell death was assessed by Propidium iodide (PI) staining (Invitrogen #P3566) and cells were imaged with an epifluorescent microscope.

[1] = test system: HEK293T cells expressing TrkB/p75; assay: BDNF^SNAP-IR700 photoablation of HEK293T cells (propidium iodide); format: cell-based; conditions: HEK293T cells expressing TrkB/p75; 24 hours after brief illumination
Excerpt: In initial experiments BDNF^SNAP-IR700 was applied to HEK293T cells expressing TrkB/p75 and cell death assayed following near infrared illumination.

TrkB positive afferents = assay: Innervation of skin and DRG neuron counts after photoablation; format: in vivo, mouse; conditions: 7 days after photoablation (13 days post-SNI)
Excerpt: Prior to photoablation, TrkB positive lanceolate endings were detected around hair follicles (FIG. 9a) and innervating Meissner corpuscles in the plantar surface of the paw. […] It was further investigated whether loss of TrkB^CreERT2 neurons was also evident at the level of the cell soma by analyzing the number of TrkB^CreERT2 positive neurons in the DRG.

[2] = test system: Calcipotriol model of atopic dermatitis; assay: Calcipotriol model of atopic dermatitis; conditions: prevention: injection and near IR illumination 3 days prior to Calcipotriol
IL31 Receptor A (IL31RA) = assay: Binding studies in primary keratinocyte cultures with BG-Surface549 labelled ligand; set-up: species or system mouse
Excerpt: The inventors produced recombinant IL31 with a C-terminal fusion of SNAP (IL31^SNAP) in E. Coli. […] To determine whether IL31^SNAP was functional the inventors first performed binding studies in primary keratinocyte cultures. IL31^SNAP was labelled in vitro with BG-Surface549 and applied to keratinocytes from wildtype or IL31 Receptor A (IL31RA) knockout mice (IL31RA^−/−). […] The inventors further examined IL31^SNAP labelling in vivo by injecting IL31^SNAP-Surface549 intradermally into the back skin of wild type and IL31RA^−/− mice. […] Finally, the inventors determined whether IL31^SNAP was active by quantifying scratching behavior in mice upon intradermal injection. […] Thus the IL31^SNAP retains the functional properties of native IL31.
Primary keratinocytes were isolated from 1-3 day-old wild type and IL31RA^−/− mice as previously described (25). Briefly, newborn mouse skin was removed and incubated flat in cold and freshly thawed trypsin overnight, at 4° C., with the dermis side down. The next day, epidermis was peeled off, triturated and keratinocytes were cultured in serum free media (Invitrogen #10744-019) on Collagen I (Sigma #3867)-coated dishes (Ibidi #81151). All experiments were performed on 48-72 hours cultured cells.
Cells were incubated with the coupling reaction for […] at 37° C., then washed 3 times in CIB; and imaged using confocal microscope.

[3] = test system: wild type and IL31RA^−/− mice; assay: Scratching behavior upon intradermal injection of the ligand; format: in vivo, mouse; conditions: 5 μM
[4] = test system: phosphorylated Akt, pMAPK and pSTAT3; assay: Immunoblot of IL31 downstream signaling in injected skin; format: in vivo, mouse; conditions: skin harvested 1 hour after subcutaneous injection, 5 μM
Excerpt: A conceptual problem of using IL31^SNAP therapeutically is that it in itself evokes itch. The inventors therefore sought to engineer IL31^SNAP to obtain a ligand that still binds to IL31 receptor complex but no longer promotes signaling. […] The K138A mutation denotes the murine IL31 mutations. The corresponding mutation in the human IL31 protein is at position K134 in the human IL31 (SEQ ID NO: 1). The inventors generated a recombinant IL31^K138A-SNAP fusion protein, labelled it with BG-Surface549 and applied it to keratinocytes. […] Importantly, such signal was not present in IL31RA^−/− keratinocytes (FIG. 2b). The inventors further assessed cellular signaling pathways activated by IL31^SNAP and […] in the skin by examining levels of phosphorylated Akt, pMAPK and pSTAT3 which have all been previously implicated in IL31 downstream signaling (14, 21, 22). […]
To assess the coupling reaction, 10 and 20 pmol IL31^SNAP was coupled with 30 and 60 pmol BG549 respectively for 1 hour at 37° C. […] The bands corresponding to the binding of IL31^SNAP with BG549 were visualized by gel fluorescence. […] Protein lysate was quantified by Bradford assay. […] Bands were visualized using the ECL detection system (Amersham #RPN2106); band density was calculated using ImageJ and the levels of phosphorylated proteins were normalized to the total counterpart.

Molecule	fluorescent signal in keratinocytes (IL31 Receptor A (IL31RA); IL31RA^−/− keratinocytes)	fluorescent signal in keratinocytes (IL31 Receptor A (IL31RA); wildtype keratinocytes)	scratching behavior evoked by the ligand ([3]; IL31RA^−/− mice)	scratching behavior evoked by the ligand ([3]; wildtype mice)	phosphorylation of Akt, MAPK and STAT3 in skin [4]	other results
diphtheria toxin	–	–	–	–	–	ablation of TrkBCreERT2::AviliDTR and TrkB mRNA positive neurons (TrkB positive neurons): ~90%; expression of other markers (TrkB positive neurons): no change; reduction in the number of NF200 positive neurons (TrkB positive neurons): ~40%
BG-PEG11-IRDye®700DX [IR700]	–	–	–	–	–	cell death after illumination (primary keratinocytes): not evident; cell death after near infrared illumination [1]: not evident; innervation of hairy and glabrous skin (TrkB positive afferents): no apparent reduction in innervation; development of atopic dermatitis-like indicators [2]: ineffective at blocking the progression of the condition
IL31^SNAP: recombinant IL31 with a C-terminal fusion of SNAP, produced in E. Coli (protein, left off: small tags and cut ends, recombinant IL31 with a C-terminal fusion of SNAP, produced in E. Coli) TCSLSFGAPISKEDLRTTIDLLKQESQDLYNNYSIKQASGMSADESIQLPCFSLDREALTNISVIIAHLEKVKVLSENTVDTSWVIRWLTNISCFNPLNLNISVPGNTDESYDCKVFVLTVLKQFSNCMAELQAKDNTTC	not present	strong fluorescent signal internalized	did not evoke scratching	evoked robust scratching; also recorded: induced robust scratching	increased phosphorylation in each pathway	–
IL31: native recombinant IL31 (Peprotech) (protein) TCSLSFGAPISKEDLRTTIDLLKQESQDLYNNYSIKQASGMSADESIQLPCFSLDREALTNISVIIAHLEKVKVLSENTVDTSWVIRWLTNISCFNPLNLNISVPGNTDESYDCKVFVLTVLKQFSNCMAELQAKDNTTC	–	–	did not evoke scratching	–	–	–
IL31^K138A-SNAP: recombinant fusion protein of murine IL31 point mutant K138A with SNAP (protein, left off: small tags and cut ends) TCSLSFGAPISKEDLRTTIDLLKQESQDLYNNYSIKQASGMSADESIQLPCFSLDREALTNISVIIAHLEKVKVLSENTVDTSWVIRWLTNISCFNPLNLNISVPGNTDESYDCAVFVLTVLKQFSNCMAELQAKDNTTC	not present	Pronounced fluorescence	–	did not evoke any scratching above baseline levels	increase was absent	–

Source: patent publication US20190184015A1, “IRRADIATION TREATMENT OF NEUROLOGICAL SENSATIONS BY PHOTOABLATION” (European Molecular Biology Laboratory, priority 2016, published 2019)
